Tests used:
[1] = target: yeast-displayed eLIFR CBM I–Ig-like domains ('VPRVVAID') (human); test: flow cytometry on cells; LIFR constructs displayed on yeast (EBY100), soluble tagged cytokine (LIF-His and others) in PBS with 1 mg/ml BSA, detected by antibody to the tag; gated on c-myc-positive yeast; apparent affinity by non-linear regression
[2] = target: yeast-displayed human LIF (hLIF, Ser23 to Phe203) (human) (UniProt P15018); test: not stated; Supplementary Fig. 7b, not shown; told only in the discussion
[3] = target: recombinant human LIF, histidine-tagged (hLIF-His) (UniProt P15018); test: flow cytometry of yeast-displayed LIFR variants; conditions: read off a plot
[4] = target: yeast-displayed mouse LIFR (mouse) (UniProt P42703); test: flow cytometry on cells; receptor displayed on yeast, soluble cytokine titrated in PBS with 1 mg/ml BSA; bound cytokine detected by fluorescent antibodies; apparent Kd by non-linear regression
Chain of yeast-displayed mouse LIFR (mouse) (P42703 44-1092): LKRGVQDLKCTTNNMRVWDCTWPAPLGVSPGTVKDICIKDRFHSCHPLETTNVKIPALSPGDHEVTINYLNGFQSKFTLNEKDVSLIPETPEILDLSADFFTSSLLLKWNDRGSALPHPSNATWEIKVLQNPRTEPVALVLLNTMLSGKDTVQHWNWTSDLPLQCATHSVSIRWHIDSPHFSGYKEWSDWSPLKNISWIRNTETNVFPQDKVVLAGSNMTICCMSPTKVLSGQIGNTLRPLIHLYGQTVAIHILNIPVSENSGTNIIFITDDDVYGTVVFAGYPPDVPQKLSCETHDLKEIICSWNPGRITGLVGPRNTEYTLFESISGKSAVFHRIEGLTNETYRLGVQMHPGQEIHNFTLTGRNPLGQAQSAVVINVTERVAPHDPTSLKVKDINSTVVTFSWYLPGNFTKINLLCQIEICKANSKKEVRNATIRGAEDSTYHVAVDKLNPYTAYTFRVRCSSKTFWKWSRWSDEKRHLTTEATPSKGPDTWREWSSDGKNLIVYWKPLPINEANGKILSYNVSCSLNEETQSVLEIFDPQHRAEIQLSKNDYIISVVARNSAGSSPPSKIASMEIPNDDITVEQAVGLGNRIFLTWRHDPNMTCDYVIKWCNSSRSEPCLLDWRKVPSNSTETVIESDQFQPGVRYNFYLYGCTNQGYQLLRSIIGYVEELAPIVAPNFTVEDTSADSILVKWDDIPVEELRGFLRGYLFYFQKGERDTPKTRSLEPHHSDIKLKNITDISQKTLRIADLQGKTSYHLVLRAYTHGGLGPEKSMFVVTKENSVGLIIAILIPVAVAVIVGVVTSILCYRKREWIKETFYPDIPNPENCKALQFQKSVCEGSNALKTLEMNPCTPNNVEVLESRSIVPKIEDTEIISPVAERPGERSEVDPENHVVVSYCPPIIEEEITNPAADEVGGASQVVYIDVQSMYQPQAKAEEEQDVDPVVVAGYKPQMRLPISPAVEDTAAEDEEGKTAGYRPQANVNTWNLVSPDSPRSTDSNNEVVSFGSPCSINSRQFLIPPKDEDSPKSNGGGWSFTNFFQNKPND

Chain of yeast-displayed wild-type human LIFR CBM I–Ig-like domains (Gln45 to Gln337) (P42702 45-337, stated change not applied): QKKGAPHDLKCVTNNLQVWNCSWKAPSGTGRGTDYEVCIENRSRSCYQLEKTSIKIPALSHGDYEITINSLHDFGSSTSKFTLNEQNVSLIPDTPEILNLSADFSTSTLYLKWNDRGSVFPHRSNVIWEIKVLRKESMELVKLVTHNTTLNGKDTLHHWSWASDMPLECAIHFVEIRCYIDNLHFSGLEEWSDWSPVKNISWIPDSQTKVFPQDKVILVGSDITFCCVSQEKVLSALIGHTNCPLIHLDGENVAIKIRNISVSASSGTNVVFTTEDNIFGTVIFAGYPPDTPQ
Chain of mLIFR-Fc (mouse LIFR CBM I–Ig-like–CBM II fused to an antibody Fc domain) (P42703 44-529): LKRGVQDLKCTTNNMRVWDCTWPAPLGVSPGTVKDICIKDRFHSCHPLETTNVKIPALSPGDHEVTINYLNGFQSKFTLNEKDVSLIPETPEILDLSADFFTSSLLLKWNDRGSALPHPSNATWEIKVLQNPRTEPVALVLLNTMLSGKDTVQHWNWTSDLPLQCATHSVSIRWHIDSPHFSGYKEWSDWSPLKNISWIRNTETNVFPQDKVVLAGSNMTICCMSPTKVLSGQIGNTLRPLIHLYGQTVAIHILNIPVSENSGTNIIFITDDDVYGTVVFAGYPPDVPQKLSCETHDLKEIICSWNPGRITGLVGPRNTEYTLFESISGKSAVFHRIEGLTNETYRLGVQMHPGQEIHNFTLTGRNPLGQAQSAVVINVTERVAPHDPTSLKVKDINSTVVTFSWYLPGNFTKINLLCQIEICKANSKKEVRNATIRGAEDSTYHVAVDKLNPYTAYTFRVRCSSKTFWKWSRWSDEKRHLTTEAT

recombinant human LIF, histidine-tagged (hLIF-His) (from UniProt P15018 23-202) (ligand)
Kd [1]: 40 pM

mLIFR-Fc (mouse LIFR CBM I–Ig-like–CBM II fused to an antibody Fc domain) (from UniProt P42703 44-529) (Fc fusion)
Kd [2]: 1 pM

yeast-displayed wild-type human LIFR CBM I–Ig-like domains (Gln45 to Gln337) (from UniProt P42702) PRDSAID
ratio to parent [3]: 5.2

recombinant human LIF-His (from UniProt P15018 23-202) (ligand)
Kd [4]: 1.1 pM

— paper PMC8041770
